Experimental findings from patent publication US20210130444A1 (University of California, published 2021) are described below.

In test [1] the target is Myc-tagged human M1 AQP4 on U87MG cells (human) (UniProt P55087). The experiment in a line: fluorescence ratio imaging on U87MG cells (FIG. 6C).
The target of test [2] is Myc-tagged human M23 AQP4 on U87MG cells (human) (UniProt P55087). The description is as above.
In test [3] the target is Myc-tagged human M1 AQP4 on U87MG cells (human) (UniProt P55087). The experiment in a line: fluorescence ratio imaging on U87MG cells expressing Myc-tagged AQP4, anti-mouse IgG Alexa 488 detection.
Test [4] deals with Myc-tagged human M23 AQP4 on U87MG cells (human) (UniProt P55087). Described as above.
Test [5] has as its target T1, human AQP4 M23 isoform on U87MG cells (human, UniProt P55087 23-323).
T1 construct: Tetramers that assemble into orthogonal arrays of particles (OAPs); The chain begins at Met-23 of the long isoform; also called M23 AQP4; M23-AQP4
The experiment in a line: fluorescence ratio imaging on U87MG cells, single-site binding model.

The target of test [6] is T1, human AQP4 M23 isoform on U87MG cells. The experiment in a line: two-colour fluorescence ratio imaging on transiently transfected U87MG cells, rAb-53 titration.
The target is the same in test [7]. Described as above. This is another data set of the same source.
The target of test [8] is T2, purified recombinant human M1 AQP4 reconstituted in proteoliposomes (human, UniProt P55087 1-323).
T2 construct: 3% (wt/wt) AQP4 in phosphatidylcholine:phosphatidylserine liposomes on a Biacore L1 chip; also called AQP4-reconstituted proteoliposomes; AQP4-proteoliposomes
T2 sequence (P55087 whole entry, form in doubt): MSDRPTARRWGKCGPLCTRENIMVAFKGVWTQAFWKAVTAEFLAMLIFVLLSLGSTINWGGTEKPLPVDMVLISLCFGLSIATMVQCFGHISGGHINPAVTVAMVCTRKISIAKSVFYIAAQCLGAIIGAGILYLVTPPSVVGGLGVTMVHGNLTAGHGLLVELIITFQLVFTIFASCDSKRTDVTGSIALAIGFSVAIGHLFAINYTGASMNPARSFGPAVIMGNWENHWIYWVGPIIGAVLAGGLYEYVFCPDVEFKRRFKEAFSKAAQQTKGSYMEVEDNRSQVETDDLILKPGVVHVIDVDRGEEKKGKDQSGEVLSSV
The experiment in a line: surface plasmon resonance (Biacore T-100), AQP4 proteoliposomes on L1 chip, antibody injected. In general terms: Surface plasmon resonance follows binding to a sensor surface in real time, without labels.
Method: Surface plasmon resonance. […] The mixture was dialyzed (10,000 dalton cut-off) against PBS at 4° C. for 48 h. […] Proteoliposomes were immobilized on a L1 sensor chip (Biacore) with four injections at 10 min/injection at 2 μl/min to achieve 6000 response units of proteoliposomes immobilization. The surface was then washed with two 20 s injections of 50 mM NaOH at 100 μl/min, and checked for surface quality with a 300 s injection of 0.01 mg/ml BSA at 20 μl/min. Flow channel 1 (Fc 1) was immobilized with 0% AQP4 as reference, and Fc 2 contained the AQP4 proteoliposomes. Binding studies were conducted with PBS at a flow rate of 15 μl/min. rAbs in PBS were injected for 80 s followed by a post-injection period of 240 s. Regeneration was performed by injection of 50 mM NaOH at 100 μl/min for 20 s. Binding studies were done in duplicate. Data were analyzed using Biacore T100 Evaluation software.
Binding of each monoclonal recombinant antibody to AQP4 in reconstituted proteoliposomes was measured by surface plasmon resonance.

Test [9] has as its target M23:CCA mixtures (human M23 AQP4 co-expressed with M1-C13A/C17A) on U87MG cells (human) (UniProt P55087). The experiment in a line: two-colour fluorescence ratio imaging on transiently transfected U87MG cells, rAb-53 titration.
The target of test [10] is T1, human AQP4 M23 isoform on U87MG cells. Described as above. This is another data set of the same source.
In test [11] the target is T3, human AQP4 M1 isoform on U87MG cells (human, UniProt P55087 1-323).
T3 construct: Water channel; forms individual tetramers, no OAPs; also called M1 AQP4; M1-AQP4
T3 sequence (P55087 whole entry, canonical isoform): as the sequence (P55087 whole entry, form in doubt) above
The experiment in a line: two-colour fluorescence ratio imaging on U87MG cells, rAb titration, single-site binding fit.
From the text: (§1) FIG. 4B summarizes concentration-dependence binding curves for three recombinant NMO-IgGs, together with curve fits for a single-site binding model.

Test [12] deals with T1, human AQP4 M23 isoform on U87MG cells. Described as above.
From the text: as §1

T1 sequence (P55087 23-323 limits assumed): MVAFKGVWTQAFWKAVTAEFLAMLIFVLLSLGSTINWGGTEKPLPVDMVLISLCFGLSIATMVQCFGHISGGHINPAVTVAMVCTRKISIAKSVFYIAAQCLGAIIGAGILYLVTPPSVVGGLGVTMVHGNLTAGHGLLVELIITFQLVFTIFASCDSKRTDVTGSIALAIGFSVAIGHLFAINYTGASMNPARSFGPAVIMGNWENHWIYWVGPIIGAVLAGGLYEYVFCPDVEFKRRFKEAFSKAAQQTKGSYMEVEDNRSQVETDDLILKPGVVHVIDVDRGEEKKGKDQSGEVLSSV
Myc-tagged human M23 AQP4 on U87MG cells (human), sequence (P55087 whole entry, canonical isoform): as the sequence (P55087 whole entry, form in doubt) above
Myc-tagged human M1 AQP4 on U87MG cells (human), sequence (P55087 whole entry): as the sequence (P55087 whole entry, form in doubt) above

Usually Kd stands for the concentration at which binding is half-saturated. As a reminder, the EC50 (read off the curve) is the concentration at which the effect is half-maximal. On to “monoclonal mouse anti-Myc IgG (Covance) (antibody)”, for which the Kd in [1] and in test [2] was 10 nM throughout. Further, the figures for the EC50 (read off the curve) in test [3] and in [4] were 2 µg/mL and 1 µg/mL, respectively.

B1: rAb-53 (recombinant monoclonal NMO-IgG, non-mutated) (antibody, V domains shown)
VH: QVQLQESGAGLVKPSETLSLTCTVSGGSISGHYWNWIRQPPGKGLEWIGYIHYSGSTNYNPSLKSRVTISVDTSKNQFSLKLSSVTAADTAVYYCARAEGRGWSAFYYYYMEVWGKGSTVSVSS
VL: EIVLTQSPGTLSLSPGERATLSCRASQTVRTNYLAWFQQKPGQAPRLLIFGASSRATGIPDRFSGSGSGTDFTLTISRLEPEDFAVYYCQQYGSSPWTFGQGTKVEIKR
notes: Human recombinant IgG made in HEK293 cells; also called NMO-IgG (rAb-53)
Broadly, the koff is the first-order rate constant of dissociation. A word on the kon: it is the rate constant with which the complex forms. B1: the Kd came out at 44 nM in test [5], 27 nM in [8] and 2800 nM in [11]. Also, the half-maximal effective concentration (EC50 (read off the curve)) was approximately 7 µg/mL in test [6]; approximately 7 µg/mL in [7]; 6 µg/mL in [9]; approximately 7 µg/mL in test [10]; approximately 7 µg/mL in test [12]. For the same molecule, in [8], the koff is 0.00038 s⁻¹. Moreover, in test [8], the kon turned out to be 14000 M⁻¹ s⁻¹.

B2: rAb-58 (recombinant monoclonal NMO-IgG) (antibody, V domains shown)
VH: VQLVESGGGLVQPGGSLRLSCAASGFTFRGYAMNWVRQAPGKGLEWVASISGSGSITQYADSAKGRFTITRDNSKSTLYAHVSSLRADDTAVYYCAKGDYVFDYWGQGTLVTVSS
VL: DIQMTQSPSALSASVGDTVTITCRASQSIRSWLAWYQQKPGKAPKLLIYKASDLQSGVPSRFSGSGSGTDFTLTISGLQPDDFATYYCQHYNSYPYTFGQGTKVEIRR
notes: Human recombinant IgG made in HEK293 cells
Regarding B2, the Kd in [11] was 147 nM; in test [12] it was 68 nM. Besides, the concentration giving a half-maximal response (EC50 (read off the curve)) in test [12] was approximately 10 µg/mL.
